According to patent EP2717941B1 (TLA Targeted Immunotherapies AB, dated 2020):
Groups on a side chain read outwards from the residue. *: point of attachment. Biotin = O=C1N[C@H]2[C@H](CS[C@H]2CCCCC(=O)*)N1; PEG = not defined here

What was measured:
Experiment in all cases: cell-based or functional assay
hCCR5 = hCCR5 (human, UniProt P51681 1-352)
CCR4 = target: T1, CCR4 (human, UniProt P51679 1-360)
T1 sequence (looked up): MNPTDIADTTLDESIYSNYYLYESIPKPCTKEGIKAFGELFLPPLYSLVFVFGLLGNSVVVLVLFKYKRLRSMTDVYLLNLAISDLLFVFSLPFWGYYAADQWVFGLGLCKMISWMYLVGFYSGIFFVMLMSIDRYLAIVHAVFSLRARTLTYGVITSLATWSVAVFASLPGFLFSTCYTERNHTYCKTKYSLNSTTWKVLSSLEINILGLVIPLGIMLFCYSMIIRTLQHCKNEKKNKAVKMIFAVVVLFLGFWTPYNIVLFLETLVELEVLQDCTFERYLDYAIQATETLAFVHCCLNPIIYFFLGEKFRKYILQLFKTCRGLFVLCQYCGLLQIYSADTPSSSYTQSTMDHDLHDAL

hCCR10 = target: T2, hCCR10 (human, UniProt P46092 1-362)
T2 sequence (looked up): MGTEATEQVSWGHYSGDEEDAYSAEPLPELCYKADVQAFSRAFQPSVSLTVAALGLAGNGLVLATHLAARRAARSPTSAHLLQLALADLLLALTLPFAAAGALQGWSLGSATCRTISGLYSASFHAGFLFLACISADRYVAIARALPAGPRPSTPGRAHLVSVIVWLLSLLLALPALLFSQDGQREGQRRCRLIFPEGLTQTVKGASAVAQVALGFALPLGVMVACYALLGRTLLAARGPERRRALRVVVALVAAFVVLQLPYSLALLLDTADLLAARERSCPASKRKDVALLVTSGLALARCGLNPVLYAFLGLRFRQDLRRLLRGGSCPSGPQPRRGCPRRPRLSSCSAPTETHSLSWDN

chemokine receptor CCR7 = target: T3, chemokine receptor CCR7 (human, UniProt P32248 25-378)
T3 sequence (looked up): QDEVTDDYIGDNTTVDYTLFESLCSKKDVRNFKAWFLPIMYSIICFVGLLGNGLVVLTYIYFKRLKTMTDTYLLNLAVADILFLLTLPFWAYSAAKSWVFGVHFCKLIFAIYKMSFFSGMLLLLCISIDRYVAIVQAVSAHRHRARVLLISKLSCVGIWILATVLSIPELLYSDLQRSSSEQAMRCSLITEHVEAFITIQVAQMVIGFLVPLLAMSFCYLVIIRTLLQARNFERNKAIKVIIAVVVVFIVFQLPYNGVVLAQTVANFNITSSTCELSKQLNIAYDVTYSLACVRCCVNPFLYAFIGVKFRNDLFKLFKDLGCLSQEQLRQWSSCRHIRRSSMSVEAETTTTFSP

hCXCR3 = target: T4, hCXCR3 (human, UniProt P49682 1-368)
T4 sequence (looked up): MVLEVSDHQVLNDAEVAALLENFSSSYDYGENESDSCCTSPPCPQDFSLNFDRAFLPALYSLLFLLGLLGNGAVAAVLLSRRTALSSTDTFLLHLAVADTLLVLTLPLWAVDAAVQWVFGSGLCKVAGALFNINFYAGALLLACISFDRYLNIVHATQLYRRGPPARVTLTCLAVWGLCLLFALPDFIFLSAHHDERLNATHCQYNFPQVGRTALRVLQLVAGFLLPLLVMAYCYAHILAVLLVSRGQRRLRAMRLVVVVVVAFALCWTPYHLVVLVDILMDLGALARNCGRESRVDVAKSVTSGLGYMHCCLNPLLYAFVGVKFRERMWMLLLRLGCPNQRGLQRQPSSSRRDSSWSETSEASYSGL

Sequence of hCCR5 (P51681 whole entry): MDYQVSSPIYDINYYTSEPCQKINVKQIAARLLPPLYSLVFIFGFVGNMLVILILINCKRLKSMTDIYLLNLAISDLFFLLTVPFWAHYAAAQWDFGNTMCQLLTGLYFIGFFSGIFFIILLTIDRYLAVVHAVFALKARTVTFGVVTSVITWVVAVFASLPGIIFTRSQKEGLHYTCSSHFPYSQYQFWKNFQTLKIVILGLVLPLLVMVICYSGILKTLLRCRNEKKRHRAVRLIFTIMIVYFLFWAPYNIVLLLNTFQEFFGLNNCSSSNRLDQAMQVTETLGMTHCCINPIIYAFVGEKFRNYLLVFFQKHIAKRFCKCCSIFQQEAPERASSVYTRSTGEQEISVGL

B1: biotinRANTES (CCL5), RANTES derivatised at the ε-amino side chain functionality of Lys(67) with Biotin (ligand)
chain: SPYSSDTTPCCFAYIARPLPRAHIKEYFYTSGKCSNPAVVFVTRKNRQVCANPEKKWVREYINSLEK(Biotin)S
modifications: ends and bridges not checked
In the case of B1, the “EC50, agonist activity, Aequorin assay” value (hCCR5) is reported as 0.5 nM.

B2: biotinTARC (CCL17), TARC derivatised at the ε-amino side chain functionality of Lys(72) with PEG-Biotin (ligand)
chain: ARGTNVGRECCLEYFKGAIPLRKLKTWYQTSEDCSRDAIVFVTVQGRAICSDPNNKRVKNAVKYLQSLERSK([PEG-Biotin])-NH2
modifications: ends and bridges not checked; also: TFA salt
For B2, the “EC50, agonist activity, Aequorin assay” value (CCR4) was 3.1 nM.

B3: biotinCTAC (CCL27), CTAC derivatised at the ε-amino side chain functionality of Lys(87) with PEG-Biotin (ligand)
chain: FLLPPSTACCTQLYRKPLSDKLLRKVIQVELQEADGDCHLQAFVLHLAQRSICIHPQNPSLSQWFEHQERKLHGTLPKLNFGMLRKK([PEG-Biotin])G
modifications: ends and bridges not checked
B3 was tested, and the “EC50, agonist activity, Aequorin assay” value (hCCR10) was 49.4 nM.

B4: biotinMIP-3β (CCL19), MIP-3β derivatised at the ε-amino side chain functionality of Lys(78) with Biotin (ligand)
chain: GTNDAEDCCLSVTQKPIPGYIVRNFHYLLIKDGCRVPAVVFTTLRGRQLCAPPDQPWVERIIQRLQRTSAKMKRRSSX
modifications: additional Lys(78) = K(Biotin); assembled on Rink Amide resin (C-terminal amide)
B4 was tested, and the “EC50, agonist activity, Aequorin assay” value (chemokine receptor CCR7) was 11 nM.

B5: biotinMDC (CCL22), MDC derivatised at the ε-amino side chain functionality of Lys(66) with PEG-Biotin (ligand)
chain: GPYGANMEDSVCCRDYVRYRLPLRVVKHFYWTSDSCPRPGVVLLTFRDKEICADPRVPWVKMILNK([PEG-Biotin])LSQ-NH2
modifications: ends and bridges not checked
In the case of B5, the “EC50, agonist activity, Aequorin assay” value (CCR4) is reported as 4.5 nM.

B6: biotinITAC (CXCL11), ITAC derivatised with Biotin at the ε-amino side chain functionality of an additional Lysine inserted at the C-terminus after a PEG spacer (ligand)
chain: FPMFKRGRCLCIGPGVKAVKVADIEKASIMYPSNNCDKIEVIITLKENKGQRCLNPKSKQARLIIKKVERKNFX
modifications: X (position 74) is PEG-K(Biotin): PEG spacer between the protein's C-terminus and an additional biotinylated lysine
In the case of B6, the “EC50, agonist activity, Aequorin assay” value (hCXCR3) is reported as 15.7 nM.
